Where a chain is given by its changes, count along the chain named. Blank lines part the entries; values can stand above or below the binder they belong to.
Tests used:
[1] = target: ActRIIB-huFc (human); assay: KinExA
[2] = target: ActRIIB-huFc (human); assay: BIAcore
[3] = target: ActRIIB-huFc (human); assay: binding affinity, method not stated

Chain of ActRIIB-huFc (human) (chain, as listed by the source limits assumed, form in doubt): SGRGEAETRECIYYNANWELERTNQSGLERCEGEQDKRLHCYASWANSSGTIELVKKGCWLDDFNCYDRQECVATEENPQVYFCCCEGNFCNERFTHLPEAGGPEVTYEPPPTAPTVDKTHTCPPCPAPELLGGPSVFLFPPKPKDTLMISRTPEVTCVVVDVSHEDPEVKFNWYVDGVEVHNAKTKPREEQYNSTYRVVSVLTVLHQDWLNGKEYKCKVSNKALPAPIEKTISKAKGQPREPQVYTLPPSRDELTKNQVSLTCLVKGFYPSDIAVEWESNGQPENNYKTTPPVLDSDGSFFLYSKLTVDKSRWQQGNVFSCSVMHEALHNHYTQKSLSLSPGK

- Kd [1]: < 1 pM
- fold improvement of affinity over the parental molecule R31-1 [1]: 10 fold
- Kd [2]: 1 pM
B1: M43 (antibody, human IgG2, lambda, V domains shown)
VH: EVQLLESGGGLVQPGGSLRLSCAASGFTFRNSAMSWVRQAPGKGLEWVSGISVTGGSTFYTDSVKGRFTVSRDNSRNTLYLQMNSLRAEDTAVYYCAKVYYYSFFDYWGQGTLVTVSS
VL: QTVVTQEPSFSVSPGGTVTLTCGFNSGSVSTSYWPSWYQQTPGQAPRTLIYNTNTRSSGVPDRFSGSILGNKAALTITGAQADDESDYYCVLWMGSGIWVFGGGTKLTVLG

- Kd [3]: < 10 pM
- Kd [2]: 10 pM
B2: Anti-ActRIIB human IgG R31-1 (antibody, V domains shown)
VH: B1 VH with S32Y, F59Y, Y102S
VL: B1 VL with W34Y, W93Y

Source: patent US20240327526A1
